Results taken from patent US20150344570A1 (published 2015).

T1: FcγRIIa H (human, UniProt P12318 34-217)
T1 construct: extracellular domain; also called FcγRIIa type H; 2aH
T1 sequence (looked up): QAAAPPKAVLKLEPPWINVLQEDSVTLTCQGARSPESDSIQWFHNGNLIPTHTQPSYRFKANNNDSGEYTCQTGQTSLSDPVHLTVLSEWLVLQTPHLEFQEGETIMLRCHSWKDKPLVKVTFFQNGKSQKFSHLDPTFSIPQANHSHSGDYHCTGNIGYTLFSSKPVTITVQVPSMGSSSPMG

T2: FcγRIIb (human, UniProt P31994 43-217)
T2 construct: extracellular domain; also called 2b; FcgRIIb
T2 sequence (looked up): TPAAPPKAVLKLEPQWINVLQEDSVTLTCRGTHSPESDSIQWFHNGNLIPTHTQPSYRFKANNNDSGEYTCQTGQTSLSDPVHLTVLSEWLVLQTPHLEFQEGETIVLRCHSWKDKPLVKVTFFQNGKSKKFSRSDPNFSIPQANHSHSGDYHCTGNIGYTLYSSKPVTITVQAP

T3: FcγRIIb (human, UniProt P31994 43-217)
T3 construct: extracellular domain; also called FcgRIIb; 2b
T3 sequence (looked up): T2 sequence (looked up)

B1: GpH7-A5/GpH7-B3 variant D270_01G/GpL16-k0 (antibody, human IgG1, kappa)
heavy 1: not shown
heavy 2: not shown
light: DIVMTQSPLSLPVTPGEPASISCQASESLVHSNRNTYLHWYLQKPGQSPQLLIYKVSNRFSGVPDRFSGSGSGTDFTLKISRVEAEDVGVYYCSQNTHVPPTFGQGTKVEIERTVAAPSVFIFPPSDEQLKSGTASVVCLLNNFYPREAKVQWKVDNALQSGNSQESVTEQDSKDSTYSLSSTLTLSKADYEKHKVYACEVTHQGLSSPVTKSFNRGEC
notes: Heterodimerized anti-glypican-3 IgG1 (He Ab); mutation in the B3 H chain only; also called He Ab
B2: GpH7-A5/GpH7-B3 variant D270_14T/GpL16-k0 (antibody, human IgG1, kappa)
heavy 1: not shown
heavy 2: not shown
light: B1 light
notes: as for B1
B3: GpH7-A5/GpH7-B3 variant D270_13S/GpL16-k0 (antibody, human IgG1, kappa)
heavy 1: not shown
heavy 2: not shown
light: B1 light
notes: as for B1
B4: GpH7-A5/GpH7-B3 variant D270_07I/GpL16-k0 (antibody, human IgG1, kappa)
heavy 1: not shown
heavy 2: not shown
light: B1 light
notes: as for B1
B5: GpH7-A5/GpH7-B3 variant D270_02A/GpL16-k0 (antibody, human IgG1, kappa)
heavy 1: not shown
heavy 2: not shown
light: B1 light
notes: as for B1
B6: GpH7-A5/GpH7-B3 variant D270_03V/GpL16-k0 (antibody, human IgG1, kappa)
heavy 1: not shown
heavy 2: not shown
light: B1 light
notes: as for B1
B7: GpH7-A5/GpH7-B3 variant E269_06M/GpL16-k0 (antibody, human IgG1, kappa)
heavy 1: not shown
heavy 2: not shown
light: B1 light
notes: as for B1
B8: GpH7-A5/GpH7-B3 variant D270_16H/GpL16-k0 (antibody, human IgG1, kappa)
heavy 1: not shown
heavy 2: not shown
light: B1 light
notes: as for B1
B9: GpH7-A5/GpH7-B3 variant D270_18N/GpL16-k0 (antibody, human IgG1, kappa)
heavy 1: not shown
heavy 2: not shown
light: B1 light
notes: as for B1
B10: GpH7-A5/GpH7-B3 variant D270_20W/GpL16-k0 (antibody, human IgG1, kappa)
heavy 1: not shown
heavy 2: not shown
light: B1 light
notes: as for B1
B11: GpH7-A5/GpH7-B3 variant E269_02A/GpL16-k0 (antibody, human IgG1, kappa)
heavy 1: not shown
heavy 2: not shown
light: B1 light
notes: as for B1
B12: GpH7-A5/GpH7-B3 variant D270_08L/GpL16-k0 (antibody, human IgG1, kappa)
heavy 1: not shown
heavy 2: not shown
light: B1 light
notes: as for B1
B13: GpH7-A5/GpH7-B3 variant D270_12R/GpL16-k0 (antibody, human IgG1, kappa)
heavy 1: not shown
heavy 2: not shown
light: B1 light
notes: as for B1
B14: GpH7-A5/GpH7-B3 variant E269_12R/GpL16-k0 (antibody, human IgG1, kappa)
heavy 1: not shown
heavy 2: not shown
light: B1 light
notes: as for B1
B15: GpH7-A5/GpH7-B3 variant D270_10E/GpL16-k0 (antibody, human IgG1, kappa)
heavy 1: not shown
heavy 2: not shown
light: B1 light
notes: as for B1
B16: GpH7-A5/GpH7-B3 variant D270_15Y/GpL16-k0 (antibody, human IgG1, kappa)
heavy 1: not shown
heavy 2: not shown
light: B1 light
notes: as for B1
B17: GpH7-A5/GpH7-B3 variant E269_04F/GpL16-k0 (antibody, human IgG1, kappa)
heavy 1: not shown
heavy 2: not shown
light: B1 light
notes: as for B1
B18: GpH7-A5/GpH7-B3 variant E269_03V/GpL16-k0 (antibody, human IgG1, kappa)
heavy 1: not shown
heavy 2: not shown
light: B1 light
notes: as for B1
B19: GpH7-A5/GpH7-B3 variant D270_04F/GpL16-k0 (antibody, human IgG1, kappa)
heavy 1: not shown
heavy 2: not shown
light: B1 light
notes: as for B1
B20: GpH7-A5/GpH7-B3 variant E269_07I/GpL16-k0 (antibody, human IgG1, kappa)
heavy 1: not shown
heavy 2: not shown
light: B1 light
notes: as for B1
B21: GpH7-A5/GpH7-B3 variant E269_11K/GpL16-k0 (antibody, human IgG1, kappa)
heavy 1: not shown
heavy 2: not shown
light: B1 light
notes: as for B1
B22: GpH7-A5/GpH7-B3 variant E269_13S/GpL16-k0 (antibody, human IgG1, kappa)
heavy 1: not shown
heavy 2: not shown
light: B1 light
notes: as for B1
B23: GpH7-A5/GpH7-B3 variant D270_11K/GpL16-k0 (antibody, human IgG1, kappa)
heavy 1: not shown
heavy 2: not shown
light: B1 light
notes: as for B1
B24: GpH7-A5/GpH7-B3 variant D270_19Q/GpL16-k0 (antibody, human IgG1, kappa)
heavy 1: not shown
heavy 2: not shown
light: B1 light
notes: as for B1
B25: GpH7-A5/GpH7-B3 variant E269_14T/GpL16-k0 (antibody, human IgG1, kappa)
heavy 1: not shown
heavy 2: not shown
light: B1 light
notes: as for B1
B26: GpH7-A5/GpH7-B3 variant E269_08L/GpL16-k0 (antibody, human IgG1, kappa)
heavy 1: not shown
heavy 2: not shown
light: B1 light
notes: as for B1
B27: GpH7-A5/GpH7-B3 variant D270_06M/GpL16-k0 (antibody, human IgG1, kappa)
heavy 1: not shown
heavy 2: not shown
light: B1 light
notes: as for B1
B28: GpH7-A5/GpH7-B3 variant D265_15Y/GpL16-k0 (antibody, human IgG1, kappa)
heavy 1: not shown
heavy 2: not shown
light: B1 light
notes: heterodimerized anti-glypican-3 IgG1; alteration in one H chain only; also called He Ab
B29: GpH7-A5/GpH7-B3 variant V266_12R/GpL16-k0 (antibody, human IgG1, kappa)
heavy 1: not shown
heavy 2: not shown
light: B1 light
notes: as for B28
B30: GpH7-A5/GpH7-B3 variant D265_20W/GpL16-k0 (antibody, human IgG1, kappa)
heavy 1: not shown
heavy 2: not shown
light: B1 light
notes: as for B28

Each binder was assayed against T1, FcγRIIa H (assay: ratio of He/Con_2aH to He/Con_2b (FcγRIIb); SPR).

He_2aH/2b (IIaH/IIb ratio)	Binder
1.72	B1
1.3	B2
1.61	B3
1.54	B4
1.58	B5
1.56	B6
1.58	B7
1.51	B8
1.55	B9
1.74	B10
1.56	B11
1.41	B12
2.16	B13
1.86	B14
1.34	B15
1.6	B16
1.52	B17
1.49	B18
1.42	B19
1.52	B20
2.87	B21
1.46	B22
2.17	B23
1.77	B24
1.37	B25
1.57	B26
1.54	B27

What follows are binders tested against T1, FcγRIIa H (assay: SPR (Biacore), captured antibody, FcγR as analyte; GpH7-A5/GpH7-B3/GpL16-k0 = 100).
Method: (§1) The heterodimerized antibodies He Abs in which one of the H chains was introduced with an alteration were assayed for their binding activities to each activating FcγR and inhibitory FcγR according to the method described in Example 4. […] The activating FcγRs in FIGS. 26, 27, 28, and 29 are FcγRIa, FcγRIIa (R), FcγRIIa (H), and FcγRIIIa, respectively.
(§2) Analysis of interaction between objective antibody and the FcγR was carried out using Biacore T100 (GE Healthcare). HBS-EP+ (GE Healthcare) was used as the running buffer, and the measurement temperature was set to 25° C. Chips produced by immobilizing the antigen peptide by the amine coupling method to a Series S Sencor Chip CM5 (GE Healthcare), or alternatively, chips produced by allowing preliminarily biotinylated antigen peptides to interact with and immobilize onto a Series S Sensor Chip SA (certified) (GE Healthcare) were used. Antibodies of interest were captured onto an antigen peptide-immobilized chip, and allowed to interact to each FcγR diluted with running buffer. To regenerate and repeatedly use the chip, the antibodies captured on the chip were washed off by reacting 10 mM glycine-HCl, pH 1.5.

He/Con_2aH (relative binding) [%]	Binder
52.5	B1
75.3	B2
71.2	B3
64	B4
76.4	B5
61.8	B6
73.6	B7
71.5	B8
62.5	B9
60.2	B10
77.8	B11
75.8	B12
39.5	B13
46.8	B14
102	B15
71.9	B16
68.5	B17
67.5	B18
75.4	B19
66.6	B20
51.1	B21
70	B22
44	B23
85	B24
69.6	B25
67.4	B26
74.4	B27

The binders below were run against T2, FcγRIIb in the same assay as above.
Method: as §1, §2

He/Con_2b (relative binding) [%]	Binder
30.5	B1
57.8	B2
44.2	B3
41.5	B4
48.3	B5
39.5	B6
46.7	B7
47.2	B8
40.3	B9
34.7	B10
49.9	B11
53.6	B12
18.3	B13
25.2	B14
76.5	B15
44.9	B16
45	B17
45.1	B18
53.1	B19
43.9	B20
17.8	B21
47.8	B22
20.3	B23
48	B24
50.6	B25
42.9	B26
48.2	B27

Each binder was assayed against T3, FcγRIIb (assay: SPR (Biacore), captured antibody, FcγR as analyte; relative binding, control GpH7-A5/GpH7-B3/GpL16-k0 = 100).
Method: as §1, §2

He/Con_2b [control = 100]	Binder
0.6	B28
-1.1	B29
1.1	B30
